The source of these data is patent publication US20170296617A1 (UNIVERSITY OF HOUSTON SYSTEM, published 2017).

No end group written: not given here. TAT = TAT cell-penetrating sequence fused at N-terminus

For experiment [1], the target named is T1, ROCK1 (UniProt Q13464 1-553, limits assumed).
T1 construct: also called Rho-associated kinase 1; p160ROCK
In words: SPR (BiaCore, proteins immobilized on CM-5 chip). A general note: In SPR one partner is held on a chip, and binding of the other changes the refractive index at the surface.

For experiment [2], the target named is T1, ROCK1. The experiment can be described thus: SPR (BiaCore), protein immobilized on CM-5 chip, peptide as analyte; the sheet does not say whether ROCK-I is ROCK1-553 or ROCK1-415.
The next experiment has as its target T2, ROCK2 (UniProt O75116 5-554, limits assumed).
T2 construct: also called ROKa
In words: SPR (BiaCore), protein immobilized on CM-5 chip, peptide as analyte; no ROCK-II sensorgram is drawn.

As a reminder, the Kd is the free concentration of one partner at which half of the binding sites on the other are occupied at equilibrium, for simple one-to-one binding. Higher therefore signals lower affinity.

T1 sequence (Q13464 1-553 limits assumed): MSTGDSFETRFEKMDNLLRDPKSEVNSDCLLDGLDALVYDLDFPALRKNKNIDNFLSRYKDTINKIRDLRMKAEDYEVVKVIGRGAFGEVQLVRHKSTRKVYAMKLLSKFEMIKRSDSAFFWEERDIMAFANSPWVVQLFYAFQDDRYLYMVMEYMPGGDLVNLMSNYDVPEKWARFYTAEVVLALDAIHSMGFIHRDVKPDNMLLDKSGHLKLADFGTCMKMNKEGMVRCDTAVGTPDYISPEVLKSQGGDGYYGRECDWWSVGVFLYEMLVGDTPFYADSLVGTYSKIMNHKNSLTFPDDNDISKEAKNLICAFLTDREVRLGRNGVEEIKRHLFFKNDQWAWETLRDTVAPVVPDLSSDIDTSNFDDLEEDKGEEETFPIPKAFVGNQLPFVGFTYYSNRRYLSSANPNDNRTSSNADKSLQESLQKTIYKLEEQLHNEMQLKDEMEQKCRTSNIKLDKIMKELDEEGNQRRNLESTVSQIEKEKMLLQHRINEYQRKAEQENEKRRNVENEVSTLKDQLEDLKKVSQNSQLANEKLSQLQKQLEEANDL
T2 sequence (O75116 5-554 limits assumed): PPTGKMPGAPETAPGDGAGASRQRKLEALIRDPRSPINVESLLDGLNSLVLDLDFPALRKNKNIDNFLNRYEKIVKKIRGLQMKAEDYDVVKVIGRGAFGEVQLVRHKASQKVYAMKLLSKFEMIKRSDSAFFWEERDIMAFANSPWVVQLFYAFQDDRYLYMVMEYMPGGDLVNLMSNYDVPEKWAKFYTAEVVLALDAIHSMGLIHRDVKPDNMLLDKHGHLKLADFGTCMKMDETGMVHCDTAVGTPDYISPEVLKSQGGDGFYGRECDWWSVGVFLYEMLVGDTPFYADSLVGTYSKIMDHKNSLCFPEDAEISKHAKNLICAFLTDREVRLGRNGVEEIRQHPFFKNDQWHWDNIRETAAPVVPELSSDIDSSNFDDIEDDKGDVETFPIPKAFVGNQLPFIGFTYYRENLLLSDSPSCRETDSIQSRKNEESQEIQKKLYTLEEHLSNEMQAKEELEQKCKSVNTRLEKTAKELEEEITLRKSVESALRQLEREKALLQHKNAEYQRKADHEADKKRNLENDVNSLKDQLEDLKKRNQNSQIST

Molecule ERTYSPSTAVRS (also called PD2w-5; Pep25-4) [peptide25 (ERTYSPSTAVRS)] had a Kd in the experiment with ROCK1 [1] of 1500 nM.

B1: TATpeptide25 (peptide25 with the TAT sequence fused at its N-terminal end) (peptide)
peptide: {TAT}-ERTYSPSTAVRS
notes: Synthetic peptide added to the cell culture medium
Take B1: the Kd in the experiment with ROCK1 [2] was 1450 nM; in the experiment with ROCK2 it was 5150 nM.
